Measurements: publication PMC10198640

Molecular target: T1, recombinant soluble form of the extracellular domain of DC-SIGN, Q9NNX6
T1 chain: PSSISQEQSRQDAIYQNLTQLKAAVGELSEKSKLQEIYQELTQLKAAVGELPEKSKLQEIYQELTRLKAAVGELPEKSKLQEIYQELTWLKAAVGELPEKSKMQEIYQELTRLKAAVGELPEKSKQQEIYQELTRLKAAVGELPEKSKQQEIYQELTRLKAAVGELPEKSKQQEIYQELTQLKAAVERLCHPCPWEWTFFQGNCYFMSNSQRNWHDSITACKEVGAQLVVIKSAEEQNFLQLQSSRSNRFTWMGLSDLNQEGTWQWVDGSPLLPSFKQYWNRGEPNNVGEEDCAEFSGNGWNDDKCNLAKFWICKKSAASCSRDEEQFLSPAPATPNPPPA
Assay: native gel or EMSA; denaturing and nondenaturing polyacrylamide gel electrophoresis of the refolded, purified protein (fig. S2, A and B)
Conditions: remark: other sources report otherwise

stoichiometry N: 4
B1: recombinant soluble form of the extracellular domain of DC-SIGN, Q9NNX6 64-404 (domain or fragment)
chain: PSSISQEQSRQDAIYQNLTQLKAAVGELSEKSKLQEIYQELTQLKAAVGELPEKSKLQEIYQELTRLKAAVGELPEKSKLQEIYQELTWLKAAVGELPEKSKMQEIYQELTRLKAAVGELPEKSKQQEIYQELTRLKAAVGELPEKSKQQEIYQELTRLKAAVGELPEKSKQQEIYQELTQLKAAVERLCHPCPWEWTFFQGNCYFMSNSQRNWHDSITACKEVGAQLVVIKSAEEQNFLQLQSSRSNRFTWMGLSDLNQEGTWQWVDGSPLLPSFKQYWNRGEPNNVGEEDCAEFSGNGWNDDKCNLAKFWICKKSAASCSRDEEQFLSPAPATPNPPPA
